Experiment [1] concerns the target HER2 on cancer cells (MCF7, SKBR3, BT474, SKOV3, OVCAR3) (human) (UniProt P04626). The experiment is described as follows: cell-based or functional assay.
Experiment [2] has the same target. Nature of the experiment: flow cytometry on OVCAR3 cells; retelling of FIG. 16 with a different last digit (1436 there). A general note: Flow cytometry measures light scatter and fluorescence of single cells or particles in a stream.
Experiment [3] has the same target. Nature of the experiment: flow cytometry, 100 nM memAb trastuzumab on MCF7 cells, secondary anti-kappa-647 (secondary alone: 338).
Experiment [4] shares this target. Nature of the experiment: flow cytometry, 100 nM memAb trastuzumab on BT474 cells, secondary anti-kappa-647 (secondary alone: 392).
Experiment [5] has the same target. The experiment is described as follows: flow cytometry, 100 nM memAb trastuzumab on SKBR3 cells, secondary anti-kappa-647 (secondary alone: 330).
For experiment [6] the target is unchanged. The experiment is described as follows: flow cytometry, 100 nM memAb trastuzumab on SKOV3 cells, secondary anti-kappa-647 (secondary alone: 370).
Experiment [7] has the same target. Nature of the experiment: flow cytometry, 100 nM memAb trastuzumab on OVCAR3 cells, secondary anti-kappa-647 (secondary alone: 307).

The values below come from patent US20210061879A1.

Regarding “meditope-enabled I83E trastuzumab IgG (antibody)”, in experiment [1], the EC50 of Jurkat-NFAT-Luc meditope-CAR cell activation (luminescence), co-culture with BT474 was 0.26 nM; the EC50 of Jurkat-NFAT-Luc meditope-CAR cell activation (luminescence), co-culture with MCF7 came to 0.42 nM; the EC50 of Jurkat-NFAT-Luc meditope-CAR cell activation (luminescence), co-culture with SKBR3 was found to be 0.83 nM; the EC50 of Jurkat-NFAT-Luc meditope-CAR cell activation (luminescence), co-culture with SKOV3 is 0.35 nM. For the same substance, in experiment [1], the IC50 of cancer cell viability, BT474 co-incubated with memAb trastuzumab and FabRack T cells, 3 days stood at 0.33 nM; the IC50 of cancer cell viability, MCF7 co-incubated with memAb trastuzumab and FabRack T cells, 3 days is 0.069 nM; the IC50 of cancer cell viability, SKBR3 co-incubated with memAb trastuzumab and FabRack T cells, 3 days was 0.11 nM; the IC50 of cancer cell viability, SKOV3 co-incubated with memAb trastuzumab and FabRack T cells, 3 days amounted to 0.046 nM. The same substance gave an MFI in experiment [2] of 1440. The same substance registered a median fluorescence intensity (MFI) in experiment [3] of 985. The median fluorescence intensity (MFI) in experiment [4] worked out at 31700. Moreover, the median fluorescence intensity (MFI) in experiment [5] is 34400. The substance also displayed a median fluorescence intensity (MFI) in experiment [6] of 43200. Further, the median fluorescence intensity (MFI) in experiment [7] worked out at 1440.
